Experimental data reported in article PMC2817469.

How the values were obtained:
[1] = molecular target: T1, Dna2 E675A (nuclease-defective) (UniProt P38859 1-1522, E675A); experiment: competition
[2] = molecular target: T1, Dna2 E675A (nuclease-defective); experiment: EMSA
[3] = molecular target: T1, Dna2 E675A (nuclease-defective); experiment: DNase I footprinting
[4] = molecular target: T1, Dna2 E675A (nuclease-defective); experiment: competition; remark: listed apart in the source

T1 sequence (P38859 whole entry E675A): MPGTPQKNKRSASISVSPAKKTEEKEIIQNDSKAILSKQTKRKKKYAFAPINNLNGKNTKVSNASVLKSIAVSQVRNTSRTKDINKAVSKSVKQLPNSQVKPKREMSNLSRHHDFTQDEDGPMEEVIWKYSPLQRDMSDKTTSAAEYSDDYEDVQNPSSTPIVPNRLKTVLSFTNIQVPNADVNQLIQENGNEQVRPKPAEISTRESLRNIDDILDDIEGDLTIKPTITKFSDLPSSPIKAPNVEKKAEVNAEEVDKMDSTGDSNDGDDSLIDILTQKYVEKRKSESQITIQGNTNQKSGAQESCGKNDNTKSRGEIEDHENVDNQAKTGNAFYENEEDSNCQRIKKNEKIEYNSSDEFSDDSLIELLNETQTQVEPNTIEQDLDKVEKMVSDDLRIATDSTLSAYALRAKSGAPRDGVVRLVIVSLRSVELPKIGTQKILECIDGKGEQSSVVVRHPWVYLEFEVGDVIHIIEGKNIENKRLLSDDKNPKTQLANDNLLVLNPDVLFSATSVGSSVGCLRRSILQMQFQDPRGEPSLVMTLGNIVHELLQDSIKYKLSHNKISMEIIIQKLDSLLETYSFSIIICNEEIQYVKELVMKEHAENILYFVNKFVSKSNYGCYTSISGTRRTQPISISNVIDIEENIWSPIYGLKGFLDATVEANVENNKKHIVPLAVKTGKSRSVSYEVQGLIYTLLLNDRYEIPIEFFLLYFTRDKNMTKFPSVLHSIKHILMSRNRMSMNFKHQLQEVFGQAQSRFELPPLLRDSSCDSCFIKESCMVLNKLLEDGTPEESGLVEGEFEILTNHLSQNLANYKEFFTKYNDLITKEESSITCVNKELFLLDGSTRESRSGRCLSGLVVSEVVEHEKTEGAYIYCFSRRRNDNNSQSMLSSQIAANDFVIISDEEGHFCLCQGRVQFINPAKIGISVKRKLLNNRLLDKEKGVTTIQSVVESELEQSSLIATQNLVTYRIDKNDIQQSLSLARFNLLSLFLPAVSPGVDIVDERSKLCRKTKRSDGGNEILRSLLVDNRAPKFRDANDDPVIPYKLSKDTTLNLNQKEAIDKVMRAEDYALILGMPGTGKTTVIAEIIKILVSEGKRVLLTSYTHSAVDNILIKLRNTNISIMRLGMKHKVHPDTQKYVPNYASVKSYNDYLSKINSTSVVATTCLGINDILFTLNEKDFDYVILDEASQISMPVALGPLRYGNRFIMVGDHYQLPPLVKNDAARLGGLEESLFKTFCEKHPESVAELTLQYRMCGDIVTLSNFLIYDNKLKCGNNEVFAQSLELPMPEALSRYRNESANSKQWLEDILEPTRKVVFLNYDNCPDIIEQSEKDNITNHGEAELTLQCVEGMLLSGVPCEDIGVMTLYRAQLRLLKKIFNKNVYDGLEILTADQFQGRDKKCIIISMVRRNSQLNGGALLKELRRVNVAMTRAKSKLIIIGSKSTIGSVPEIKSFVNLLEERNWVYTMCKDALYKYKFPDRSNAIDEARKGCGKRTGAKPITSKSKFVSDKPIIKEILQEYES

TTCACGAGATTTACTTATTTCACTGCGGCT (ssDNA) [ssDNA 30-nt]
binding result [1]: binds

B1: Double-Flap (structured_DNA)
DNA: TTCACGAGATTTACTTATTTCACTGCGGCTACATGATGCATCGTTAGGCGATTCCGCCTAACGATGCATCATGTCGCGAACCCTATTTAGGGTTCGCGT
Kd [2]: 7 nM

B2: Nick (structured_DNA)
DNA: ACATGATGCATCGTTAGGCGATTCCGCCTAACGATGCATCATGTCGCGAACCCTATTTAGGGTTCGCG
binding result [3]: binds

B3: Gap (20-nt) (structured_DNA)
DNA: ACATGATGCATCGTTAGGCGATTCCGCCTAACGATGCATCATGTTTTTTTTTTTTTTTTTTTTTCGCGAACCCTATTTAGGGTTCGCG
Kd [2]: 6.7 nM

B4: 5'-Tail (structured_DNA)
DNA: TTCACGAGATTTACTTATTTCACTGCGGCTACATGATGCATCGTTAGGCGATTCCGCCTAACGATGCATCATGT
Kd [2]: 8.5 nM

B5: Fork (structured_DNA)
DNA: TTCACGAGATTTACTTATTTCACTGCGGCTACATGATGCATCGTTAGGCGATTCCGCCTAACGATGCATCATGTTGTTACCCTTTGA
Kd [2]: 9.2 nM

B6: Flap (30-nt 5'-flap) (structured_DNA)
DNA: TTCACGAGATTTACTTATTTCACTGCGGCTACATGATGCATCGTTAGGCGATTCCGCCTAACGATGCATCATGTCGCGAACCCTATTTAGGGTTCGCG
Kd [2]: 8.4 nM

B7: Biotin-Flap, streptavidin-blocked (structured_DNA)
DNA: B6 DNA
modifications: 5' biotin
binding result [4]: binds
